# B1: Three-prime repair exonuclease 1 (Homo sapiens), Q9NSU2-1 (parent)
# chain: MGPGARRQGRIVQGRPEMCFCPPPTPLPPLRILTLGTHTPTPCSSPGSAAGTYPTMGSQALPPGPMQTLIFFDMEATGLPFSQPKVTELCLLAVHRCALESPPTSQGPPPTVPPPPRVVDKLSLCVAPGKACSPAASEITGLSTAVLAAHGRQCFDDNLANLLLAFLRRQPQPWCLVAHNGDRYDFPLLQAELAMLGLTSALDGAFCVDSITALKALERASSPSEHGPRKSYSLGSIYTRLYGQSPPDSHTAEGDVLALLSICQWRPQALLRWVDAHARPFGTIRPMYGVTASARTKPRPSAVTTTAHLATTRNTSPSLGESRGTKDLPPVKDPGALSREGLLAPLGLLAILTLAVATLYGLSLATPGE
# partner: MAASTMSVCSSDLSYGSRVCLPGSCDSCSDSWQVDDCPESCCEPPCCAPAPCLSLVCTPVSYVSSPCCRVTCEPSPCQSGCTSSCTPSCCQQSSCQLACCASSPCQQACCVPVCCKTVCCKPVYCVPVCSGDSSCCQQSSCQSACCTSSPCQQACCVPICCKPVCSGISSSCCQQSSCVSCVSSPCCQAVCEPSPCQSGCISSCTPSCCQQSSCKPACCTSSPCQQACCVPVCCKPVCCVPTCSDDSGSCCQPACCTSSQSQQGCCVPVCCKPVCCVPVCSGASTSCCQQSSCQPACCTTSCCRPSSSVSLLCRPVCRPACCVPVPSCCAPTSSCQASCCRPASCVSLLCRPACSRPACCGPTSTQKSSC
# B2: Acetylcholine receptor subunit gamma (Homo sapiens), P07510-2 (parent)
# chain: MHGGQGPLLLLLLLAVCLGAQGRNQEERLLADLMQNYDPNLRPAERDSDVVNVSLKLTLTNLISLNEREEALTTNVWIEMQWCDYRLRWDPRDYEGLWVLRVPSTMVWRPDIVLENKSQTYSTNEIDLQLSQEDGQTIEWIFIDPEAFTENGEWAIQHRPAKMLLDPAAPAQEAGHQKVVFYLLIQRKPLFYVINIIAPCVLISSVAILIHFLPAKAGGQKCTVAINVLLAQTVFLFLVAKKVPETSQAVPLISKYLTFLLVVTILIVVNAVVVLNVSLRSPHTHSMARGVRKVFLRLLPQLLRMHVRPLAPAAVQDTQSRLQNGSSGWSITTGEEVALCLPRSELLFQQWQRQGLVAAALEKLEKGPELGLSQFCGSLKQAAPAIQACVEACNLIACARHQQSHFDNGNEEWFLVGRVLDRVCFLAMLSLFICGTAGIFLMAHYNRVPALPFPGDPRPYLPSPD
# partner: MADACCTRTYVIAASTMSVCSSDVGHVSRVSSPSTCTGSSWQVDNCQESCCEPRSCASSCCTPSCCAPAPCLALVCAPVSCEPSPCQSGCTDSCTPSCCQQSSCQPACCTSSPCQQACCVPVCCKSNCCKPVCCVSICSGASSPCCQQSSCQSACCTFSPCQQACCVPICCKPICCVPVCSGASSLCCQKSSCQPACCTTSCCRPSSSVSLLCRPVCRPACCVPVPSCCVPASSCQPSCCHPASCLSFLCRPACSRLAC
# B3: Phakinin (Homo sapiens), Q13515 (parent)
# chain: MSERRVVVDLPTSASSSMPLQRRRASFRGPRSSSSLESPPASRTNAMSGLVRAPGVYVGTAPSGCIGGLGARVTRRALGISSVFLQGLRSSGLATVPAPGLERDHGAVEDLGGCLVEYMAKVHALEQVSQELETQLRMHLESKATRSGNWGALRASWASSCQQVGEAVLENARLMLQTETIQAGADDFKERYENEQPFRKAAEEEINSLYKVIDEANLTKMDLESQIESLKEELGSLSRNYEEDVKLLHKQLAGCELEQMDAPIGTGLDDILETIRIQWERDVEKNRVEAGALLQAKQQAEVAHMSQTQEEKLAAALRVELHNTSCQVQSLQAETESLRALKRGLENTLHDAKHWHDMELQNLGAVVGRLEAELREIRAEAEQQQQERAHLLARKCQLQKDVASYHALLDREESG
# partner: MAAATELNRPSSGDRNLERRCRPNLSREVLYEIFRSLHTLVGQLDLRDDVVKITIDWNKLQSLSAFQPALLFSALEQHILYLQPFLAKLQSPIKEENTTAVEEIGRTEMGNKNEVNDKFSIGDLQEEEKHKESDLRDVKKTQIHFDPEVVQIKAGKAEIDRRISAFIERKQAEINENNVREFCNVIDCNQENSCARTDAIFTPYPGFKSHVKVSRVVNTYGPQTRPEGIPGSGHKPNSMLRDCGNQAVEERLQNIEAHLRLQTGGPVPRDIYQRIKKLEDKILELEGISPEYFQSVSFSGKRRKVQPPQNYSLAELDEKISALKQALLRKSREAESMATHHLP
# B4: Phospholamban (Homo sapiens), P26678 (parent)
# chain: MEKVQYLTRSAIRRASTIEMPQQARQKLQNLFINFCLILICLLLICIIVMLL
# partner: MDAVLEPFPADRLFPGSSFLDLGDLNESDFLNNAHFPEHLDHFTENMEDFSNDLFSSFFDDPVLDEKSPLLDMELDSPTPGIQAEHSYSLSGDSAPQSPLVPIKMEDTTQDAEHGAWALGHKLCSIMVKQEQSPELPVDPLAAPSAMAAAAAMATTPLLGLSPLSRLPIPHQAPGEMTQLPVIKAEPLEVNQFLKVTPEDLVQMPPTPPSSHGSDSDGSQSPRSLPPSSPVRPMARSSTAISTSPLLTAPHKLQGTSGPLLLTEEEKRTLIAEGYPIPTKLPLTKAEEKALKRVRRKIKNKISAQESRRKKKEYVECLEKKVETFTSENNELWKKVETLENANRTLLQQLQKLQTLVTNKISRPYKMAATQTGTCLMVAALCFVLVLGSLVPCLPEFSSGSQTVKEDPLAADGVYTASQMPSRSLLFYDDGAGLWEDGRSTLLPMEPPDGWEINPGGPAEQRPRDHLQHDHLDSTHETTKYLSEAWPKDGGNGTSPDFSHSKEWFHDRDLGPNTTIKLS
# B5: Polyunsaturated fatty acid 5-lipoxygenase (Homo sapiens), P09917 (parent)
# chain: MPSYTVTVATGSQWFAGTDDYIYLSLVGSAGCSEKHLLDKPFYNDFERGAVDSYDVTVDEELGEIQLVRIEKRKYWLNDDWYLKYITLKTPHGDYIEFPCYRWITGDVEVVLRDGRAKLARDDQIHILKQHRRKELETRQKQYRWMEWNPGFPLSIDAKCHKDLPRDIQFDSEKGVDFVLNYSKAMENLFINRFMHMFQSSWNDFADFEKIFVKISNTISERVMNHWQEDLMFGYQFLNGCNPVLIRRCTELPEKLPVTTEMVECSLERQLSLEQEVQQGNIFIVDFELLDGIDANKTDPCTLQFLAAPICLLYKNLANKIVPIAIQLNQIPGDENPIFLPSDAKYDWLLAKIWVRSSDFHVHQTITHLLRTHLVSEVFGIAMYRQLPAVHPIFKLLVAHVRFTIAINTKAREQLICECGLFDKANATGGGGHVQMVQRAMKDLTYASLCFPEAIKARGMESKEDIPYYFYRDDGLLVWEAIRTFTAEVVDIYYEGDQVVEEDPELQDFVNDVYVYGMRGRKSSGFPKSVKSREQLSEYLTVVIFTASAQHAAVNFGQYDWCSWIPNAPPTMRAPPPTAKGVVTIEQIVDTLPDRGRSCWHLGAVWALSQFQENELFLGMYPEEHFIEKPVKEAMARFRKNLEAIVSVIAERNKKKQLPYYYLSPDRIPNSVAI
# B6: Cullin-4B (Homo sapiens), Q13620 (parent)
# chain: MMSQSSGSGDGNDDEATTSKDGGFSSPSPSAAAAAQEVRSATDGNTSTTPPTSAKKRKLNSSSSSSSNSSNEREDFDSTSSSSSTPPLQPRDSASPSTSSFCLGVSVAASSHVPIQKKLRFEDTLEFVGFDAKMAEESSSSSSSSSPTAATSQQQQLKNKSILISSVASVHHANGLAKSSTTVSSFANSKPGSAKKLVIKNFKDKPKLPENYTDETWQKLKEAVEAIQNSTSIKYNLEELYQAVENLCSYKISANLYKQLRQICEDHIKAQIHQFREDSLDSVLFLKKIDRCWQNHCRQMIMIRSIFLFLDRTYVLQNSMLPSIWDMGLELFRAHIISDQKVQNKTIDGILLLIERERNGEAIDRSLLRSLLSMLSDLQIYQDSFEQRFLEETNRLYAAEGQKLMQEREVPEYLHHVNKRLEEEADRLITYLDQTTQKSLIATVEKQLLGEHLTAILQKGLNNLLDENRIQDLSLLYQLFSRVRGGVQVLLQQWIEYIKAFGSTIVINPEKDKTMVQELLDFKDKVDHIIDICFLKNEKFINAMKEAFETFINKRPNKPAELIAKYVDSKLRAGNKEATDEELEKMLDKIMIIFRFIYGKDVFEAFYKKDLAKRLLVGKSASVDAEKSMLSKLKHECGAAFTSKLEGMFKDMELSKDIMIQFKQYMQNQNVPGNIELTVNILTMGYWPTYVPMEVHLPPEMVKLQEIFKTFYLGKHSGRKLQWQSTLGHCVLKAEFKEGKKELQVSLFQTLVLLMFNEGEEFSLEEIKQATGIEDGELRRTLQSLACGKARVLAKNPKGKDIEDGDKFICNDDFKHKLFRIKINQIQMKETVEEQASTTERVFQDRQYQIDAAIVRIMKMRKTLSHNLLVSEVYNQLKFPVKPADLKKRIESLIDRDYMERDKENPNQYNYIA
# partner: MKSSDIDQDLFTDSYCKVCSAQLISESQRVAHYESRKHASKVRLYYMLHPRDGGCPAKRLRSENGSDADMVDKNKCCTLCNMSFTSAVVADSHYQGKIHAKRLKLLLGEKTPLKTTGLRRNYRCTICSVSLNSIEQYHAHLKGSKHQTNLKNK
# B7: Emerin (Homo sapiens), P50402 (parent)
# chain: MDNYADLSDTELTTLLRRYNIPHGPVVGSTRRLYEKKIFEYETQRRRLSPPSSSAASSYSFSDLNSTRGDADMYDLPKKEDALLYQSKGYNDDYYEESYFTTRTYGEPESAGPSRAVRQSVTSFPDADAFHHQVHDDDLLSSSEEECKDRERPMYGRDSAYQSITHYRPVSASRSSLDLSYYPTSSSTSFMSSSSSSSSWLTRRAIRPENRAPGAGLGQDRQVPLWGQLLLFLVFVIVLFFIYHFMQAEEGNPF
# partner: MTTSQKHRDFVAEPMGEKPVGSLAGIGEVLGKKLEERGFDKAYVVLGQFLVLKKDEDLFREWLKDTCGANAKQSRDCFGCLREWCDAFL
# B8: PiggyBac transposable element-derived protein 1 (Homo sapiens), Q96JS3 (parent)
# chain: MYEALPGPAPENEDGLVKVKEEDPTWEQVCNSQEGSSHTQEICRLRFRHFCYQEAHGPQEALAQLRELCHQWLRPEMHTKEQIMELLVLEQFLTILPKELQPCVKTYPLESGEEAVTVLENLETGSGDTGQQASVYIQGQDMHPMVAEYQGVSLECQSLQLLPGITTLKCEPPQRPQGNPQEVSGPVPHGSAHLQEKNPRDKAVVPVFNPVRSQTLVKTEEETAQAVAAEKWSHLSLTRRNLCGNSAQETVMSLSPMTEEIVTKDRLFKAKQETSEEMEQSGEASGKPNRECAPQIPCSTPIATERTVAHLNTLKDRHPGDLWARMHISSLEYAAGDITRKGRKKDKARVSELLQGLSFSGDSDVEKDNEPEIQPAQKKLKVSCFPEKSWTKRDIKPNFPSWSALDSGLLNLKSEKLNPVELFELFFDDETFNLIVNETNNYASQKNVSLEVTVQEMRCVFGVLLLSGFMRHPRREMYWEVSDTDQNLVRDAIRRDRFELIFSNLHFADNGHLDQKDKFTKLRPLIKQMNKNFLLYAPLEEYYCFDKSMCECFDSDQFLNGKPIRIGYKIWCGTTTQGYLVWFEPYQEESTMKVDEDPDLGLGGNLVMNFADVLLERGQYPYHLCFDSFFTSVKLLSALKKKGVRATGTIRENRTEKCPLMNVEHMKKMKRGYFDFRIEENNEIILCRWYGDGIISLCSNAVGIEPVNEVSCCDADNEEIPQISQPSIVKVYDECKEGVAKMDQIISKYRVRIRSKKWYSILVSYMIDVAMNNAWQLHRACNPGASLDPLDFRRFVAHFYLEHNAHLSD
# partner: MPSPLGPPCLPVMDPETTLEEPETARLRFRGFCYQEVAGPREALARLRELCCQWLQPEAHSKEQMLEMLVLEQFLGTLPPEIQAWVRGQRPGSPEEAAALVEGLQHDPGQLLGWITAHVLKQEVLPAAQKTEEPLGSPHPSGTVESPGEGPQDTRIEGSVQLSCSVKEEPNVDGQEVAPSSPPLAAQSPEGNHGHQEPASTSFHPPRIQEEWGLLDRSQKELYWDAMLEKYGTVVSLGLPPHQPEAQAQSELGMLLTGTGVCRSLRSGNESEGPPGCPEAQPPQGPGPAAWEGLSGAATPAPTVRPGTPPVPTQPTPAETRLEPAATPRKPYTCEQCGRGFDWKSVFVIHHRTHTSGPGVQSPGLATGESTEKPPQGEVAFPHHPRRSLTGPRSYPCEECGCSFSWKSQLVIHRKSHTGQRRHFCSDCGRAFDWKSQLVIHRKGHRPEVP
# Variants of: B1
# Details: with kr107_human KRTAP10-7, P60409
row,Variant,effect of a mutation on the interaction
1,R169H,with no effect

# Variants of: B2
# Details: with kr108_human KRTAP10-8, P60410
row,Variant,effect of a mutation on the interaction
1,R187C,disrupting interaction strength
2,V107G,disrupting interaction strength
3,R86C,disrupting interaction strength

# Variants of: B3
# Details: with MBIP
row,Variant,effect of a mutation on the interaction
1,R339H,with no effect
2,A407D,with no effect

# Variants of: B4
# Details: with cr3l1_human CREB3L1, Q96BA8
row,Variant,effect of a mutation on the interaction
1,R9C,with no effect

# Variants of: B5
# Details: with md1l1_human MAD1L1, Q9Y6D9
# Chain of md1l1_human MAD1L1, Q9Y6D9 (Q9Y6D9 whole entry): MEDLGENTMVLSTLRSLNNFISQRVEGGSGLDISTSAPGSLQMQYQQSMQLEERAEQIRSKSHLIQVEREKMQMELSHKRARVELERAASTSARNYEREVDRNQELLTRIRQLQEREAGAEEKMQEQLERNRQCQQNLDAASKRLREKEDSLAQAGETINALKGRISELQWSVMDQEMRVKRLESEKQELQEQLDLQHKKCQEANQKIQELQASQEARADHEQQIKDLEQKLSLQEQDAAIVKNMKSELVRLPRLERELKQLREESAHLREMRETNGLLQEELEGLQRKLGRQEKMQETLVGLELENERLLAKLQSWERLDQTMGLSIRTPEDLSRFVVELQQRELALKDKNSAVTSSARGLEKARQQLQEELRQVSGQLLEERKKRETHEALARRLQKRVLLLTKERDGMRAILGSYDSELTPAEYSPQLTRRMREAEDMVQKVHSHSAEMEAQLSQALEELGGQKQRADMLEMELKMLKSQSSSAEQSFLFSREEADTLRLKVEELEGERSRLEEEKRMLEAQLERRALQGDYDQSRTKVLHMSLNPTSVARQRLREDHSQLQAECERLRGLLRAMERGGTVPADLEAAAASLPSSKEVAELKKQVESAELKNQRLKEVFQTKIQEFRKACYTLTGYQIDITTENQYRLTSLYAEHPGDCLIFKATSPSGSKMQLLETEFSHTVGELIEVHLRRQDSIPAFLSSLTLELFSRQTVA
row,Variant,effect of a mutation on the interaction
1,E254K,with no effect

# Variants of: B5
# Details: with hipl2_human HHIPL2, Q6UWX4
# Chain of hipl2_human HHIPL2, Q6UWX4 (Q6UWX4 whole entry): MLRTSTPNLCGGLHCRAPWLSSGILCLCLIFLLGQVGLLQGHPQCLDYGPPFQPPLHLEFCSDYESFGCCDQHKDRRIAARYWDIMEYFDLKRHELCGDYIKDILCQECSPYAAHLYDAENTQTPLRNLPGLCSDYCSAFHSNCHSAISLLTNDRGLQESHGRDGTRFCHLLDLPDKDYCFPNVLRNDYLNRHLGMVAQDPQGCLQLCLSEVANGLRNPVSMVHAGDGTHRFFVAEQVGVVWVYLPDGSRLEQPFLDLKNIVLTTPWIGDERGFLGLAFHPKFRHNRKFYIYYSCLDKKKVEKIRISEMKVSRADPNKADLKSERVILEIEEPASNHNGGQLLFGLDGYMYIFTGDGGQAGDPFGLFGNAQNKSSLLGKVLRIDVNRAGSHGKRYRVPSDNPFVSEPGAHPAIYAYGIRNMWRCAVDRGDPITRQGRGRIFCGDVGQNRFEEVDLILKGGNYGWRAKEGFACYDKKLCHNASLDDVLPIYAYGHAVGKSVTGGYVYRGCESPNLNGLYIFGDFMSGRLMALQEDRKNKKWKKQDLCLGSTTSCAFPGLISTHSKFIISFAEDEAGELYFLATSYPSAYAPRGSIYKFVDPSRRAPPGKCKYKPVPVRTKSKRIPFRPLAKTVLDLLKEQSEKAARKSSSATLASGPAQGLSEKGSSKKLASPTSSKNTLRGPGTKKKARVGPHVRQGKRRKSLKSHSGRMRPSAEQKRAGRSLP
row,Variant,effect of a mutation on the interaction
1,E254K,with no effect

# Variants of: B5
# Details: with syce1_human SYCE1, Q8N0S2
# Chain of syce1_human SYCE1, Q8N0S2 (Q8N0S2 whole entry): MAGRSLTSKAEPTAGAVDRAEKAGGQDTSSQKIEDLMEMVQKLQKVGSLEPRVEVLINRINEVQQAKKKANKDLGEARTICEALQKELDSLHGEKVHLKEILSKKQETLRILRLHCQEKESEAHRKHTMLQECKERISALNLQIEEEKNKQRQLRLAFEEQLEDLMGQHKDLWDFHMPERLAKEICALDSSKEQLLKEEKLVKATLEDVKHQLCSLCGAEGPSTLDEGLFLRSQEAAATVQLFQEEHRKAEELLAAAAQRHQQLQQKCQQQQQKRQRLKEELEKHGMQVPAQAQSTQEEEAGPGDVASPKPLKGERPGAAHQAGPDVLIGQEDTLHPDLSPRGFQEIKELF
row,Variant,effect of a mutation on the interaction
1,E254K,with no effect

# Variants of: B6
# Details: with ZMAT4, Q9H898-2
row,Variant,effect of a mutation on the interaction
1,T213I,with no effect
2,V745A,with no effect

# Variants of: B7
# Details: with baf_human BANF1, O75531
row,Variant,effect of a mutation on the interaction
1,D72V,with no effect
2,S54F,with no effect
3,P183T,with no effect
4,P183H,with no effect

# Variants of: B8
# Details: with zn446_human ZNF446, Q9NWS9
row,Variant,effect of a mutation on the interaction
1,Q248E,with no effect
2,P256L,with no effect
3,G244E,with no effect
4,I678V,with no effect
5,H806D,with no effect
